We go through eight molecules from patent US20150030595A1 (ANTIBODY AND RECEPTOR THERAPEUTICS, published 2015).

The labels stand for the following.
T1: C-terminally active myostatin (R&D systems) (UniProt O14793 267-375, limits assumed)
T1 construct: mature
T1 sequence (looked up): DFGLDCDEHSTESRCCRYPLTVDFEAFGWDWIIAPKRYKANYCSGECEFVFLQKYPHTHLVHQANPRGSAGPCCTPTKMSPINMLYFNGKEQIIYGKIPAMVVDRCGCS

T2: EGF5-6-Fc (DLK1 deletion mutant without the 1st to 4th EGF-like repeat domains) (human, UniProt P80370 170-302)
T2 construct: also called 5M-Fc; not shown: human antibody Fc region of the pYK602-Fc vector and any SfiI-junction residues
T2 sequence: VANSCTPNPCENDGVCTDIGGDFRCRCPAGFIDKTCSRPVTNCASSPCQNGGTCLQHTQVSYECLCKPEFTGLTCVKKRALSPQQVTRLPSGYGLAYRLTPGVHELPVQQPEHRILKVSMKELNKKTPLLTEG

B1: JM-Fc (juxtamembrane region of DLK1, all six EGF-like repeat domains deleted) (Fc fusion)
chain: KKRALSPQQVTRLPSGYGLAYRLTPGVHELPVQQPEHRILKVSMKELNKKTPLLTEG
notes: also called juxtamembrane region (JM); not shown: human antibody Fc of the pYK602-Fc vector and the SfiI junction residues between JM and Fc
B2: ACVR2B-Fc fusion protein (Fc fusion, not shown: a dimerising Fc or GST; small tags and cut ends)
chain: SGRGEAETRECIYYNANWELERTNQSGLERCEGEQDKRLHCYASWRNSSGTIELVKKGCWLDDFNCYDRQECVATEENPQVYFCCCEGNFCNERFTHLPEAGGPEVTYEPPPTAPTLLT
notes: also called water-soluble ACVR2B
B3: DLK1-Fc fusion protein (Fc fusion, not shown: a dimerising Fc or GST)
chain: AECFPACNPQNGFCEDDNVCRCQPGWQGPLCDQCVTSPGCLHGLCGEPGQCICTDGWDGELCDRDVRACSSAPCANNGTCVSLDDGLYECSCAPGYSGKDCQKKDGPCVINGSPCQHGGTCVDDEGRASHASCLCPPGFSGNFCEIVANSCTPNPCENDGVCTDIGGDFRCRCPAGFIDKTCSRPVTNCASSPCQNGGTCLQHTQVSYECLCKPEFTGLTCVKKRALSPQQVTRLPSGYGLAYRLTPGVHELPVQQPEHRILKVSMKELNKKTPLLTEG
notes: also called DLK-Fc
B4: human antibody B09 (full-length IgG) (antibody, V domains shown)
VH: QMQLVESGGRLVRPGGSLRLSCAASGFPFTSYAMNWVRQTPGKGLEWVSTITATSGKTYYADSVKGRFTISRDNSRNTLFLQMNSLRAEDTAVYYCVRGESCSGGACSDFDYWGQGALVTVSS
VL: QLVLTQPASVSGSPGQSVTISCTGTSSDIGRYNRVSWYQHHPGKAPKLILNDVTTRPSGFSNRFSGSKSGNTASLTISGLQAEDEADYSCGSYAGSYTYVFGTGTKVTVL
notes: Converted into full-length IgG with pNATAB H and pNATAB L vectors; also called B09 antibody; DLK1 antibody B09
B5: ACVR1A-Fc (Fc fusion, UniProt Q04771 21-124, looked up)
chain: MEDEKPKVNPKLYMCVCEGLSCGNEDHCEGQQCFSSLSINDGFHVYQKGCFQVYEQGKMTCKTPPSPGQAVECCQGDWCNRNITAQLPTKGKSFPGTQNFHLEV
notes: Control; origin not described; not shown: Fc; not described
B6: EGF4-6-Fc (Fc fusion)
chain: KDGPCVINGSPCQHGGTCVDDEGRASHASCLCPPGFSGNFCEIVANSCTPNPCENDGVCTDIGGDFRCRCPAGFIDKTCSRPVTNCASSPCQNGGTCLQHTQVSYECLCKPEFTGLTCVKKRALSPQQVTRLPSGYGLAYRLTPGVHELPVQQPEHRILKVSMKELNKKTPLLTEG
notes: also called 4M-Fc; not shown: human antibody Fc region of the pYK602-Fc vector and any SfiI-junction residues
B7: EGF6-Fc (Fc fusion)
chain: PVTNCASSPCQNGGTCLQHTQVSYECLCKPEFTGLTCVKKRALSPQQVTRLPSGYGLAYRLTPGVHELPVQQPEHRILKVSMKELNKKTPLLTEG
notes: also called 6M-Fc; not shown: human antibody Fc region of the pYK602-Fc vector and any SfiI-junction residues
B8: EGF3-6-Fc (DLK1 deletion mutant without the 1st and 2nd EGF-like repeat domains) (Fc fusion)
chain: DVRACSSAPCANNGTCVSLDDGLYECSCAPGYSGKDCQKKDGPCVINGSPCQHGGTCVDDEGRASHASCLCPPGFSGNFCEIVANSCTPNPCENDGVCTDIGGDFRCRCPAGFIDKTCSRPVTNCASSPCQNGGTCLQHTQVSYECLCKPEFTGLTCVKKRALSPQQVTRLPSGYGLAYRLTPGVHELPVQQPEHRILKVSMKELNKKTPLLTEG
notes: also called 3M-Fc; not shown: human antibody Fc region of the pYK602-Fc vector and any SfiI-junction residues

The target of assay [1] is T1, C-terminally active myostatin (R&D …). As to the kind of experiment: ELISA, coating 1 ug/ml myostatin, binding 10 nM, anti-human Fc HRP. For orientation: In an ELISA, binding on a coated surface is turned into a signal by an enzyme label.
In assay [2] the target is B2. Nature of the assay: SPR (ProteOn XPR36), ACVR2B-Fc coated on the chip, Fc channel as reference. The method, then:
(§1) This experiment was performed using a ProteOn XPR36 instrument (Bio-Rad). First, a sensor chip (GLC) was activated by reacting 0.1 M EDC and 0.025 M sulfo-NHS (Bio-Rad) for 60 seconds. […] The coating procedure was completed by allowing 1 M ethanolamine-HCl) (pH 8.5) to flow at the coated chip for 200 seconds. To test the bound proteins, the chip was rotated at an angle of 90°, and stabilized by allowing DPBST (PBS with 0.005% Tween 20) to flow on the chip for 30 minutes.

Assay [3] addresses T2, EGF5-6-Fc (DLK1 deletion mutant without …). Described as above. The method, then:
as §1

Assay [4] has as its target T1, C-terminally active myostatin (R&D …). Nature of the assay: ELISA on coated myostatin, one site binding (hyperbola) fit. The method, then: An immunoplate was coated overnight with 1 μg/ml of C-terminally active myostatin (R&D systems) at 4° C., washed three times with 0.05% PBST Tween 20, and then blocked with 4% skim milk/0.05% PBST Tween 20 at room temperature for 30 minutes. […] Finally, when the reaction was blocked with 2.5 M H₂SO₄, the optical densities were measured and analyzed at 420 nm.
Based on the experiment, a KD value was also determined by analyzing one site binding (hyperbola) using a GraphPad Reism 4 program.

Assay [5] deals with B2. As to the kind of experiment: SPR (ProteOn XPR36), ACVR2B-Fc coated. Here is the method: as §1
In assay [6] the target is B2. As to the kind of experiment: SPR (ProteOn XPR36), ACVR2B-Fc coated, in the presence of B09.
The target of assay [7] is B3. Nature of the assay: SPR (ProteOn XPR36).
In assay [8] the target is T1, C-terminally active myostatin (R&D …). As to the kind of experiment: ELISA on coated myostatin (1 ug/ml), Fc-HRP.

Broadly, the Kd is the constant that tells how readily two partners part at equilibrium. For orientation: koff means the rate constant with which the complex falls apart. Usually kon stands for a measure of how fast the partners come together.

Consider B1, for which the results for the binding result in assay [1] and in assay [2] were “binds” and “no binding”, respectively.
In the case of B2, the binding result in assay [3] is “binds”.
B3 registered a Kd in assay [4] of 22.8 nM. Besides, in assay [5], the Kd stood at 1.31 nM, the koff came to 0.000434 s⁻¹ and the kon was 331000 M⁻¹ s⁻¹. In assay [6], the Kd stood at 0.407 nM, the koff came out at 0.000255 s⁻¹ and the kon worked out at 626000 M⁻¹ s⁻¹.
For B4, in assay [7], the equilibrium dissociation constant (Kd) was 0.0109 nM, the koff was 6.49e-05 s⁻¹ and the kon was 3.41e+06 M⁻¹ s⁻¹.
Turning to B5, the binding result in assay [8] is recorded as “no binding (tested: 1 nM)”.
For B6, the binding result in assay [1] and in assay [2] was “binds” in each case.
As for B7, the results for the binding result in assay [1] and in assay [2] were “binds” and “no binding”, respectively.
As for B8, the binding result in assay [1] and in assay [2] was “binds” throughout.
